In the supplement of paper PMC10126150:
± gives the standard deviation of the averaged measurements.

Test system: ATP
Assay: switch fluorescence ratio, 500 uM ATP over buffer (Cy3 cluster intensity, sum of 5 cycles each) (fold (ratio)); higher = stronger signal-on switching upon ATP binding; sequences stand for … in TCGTCGGCAGCGTCAGATGTGTATAAGAGACAGTTTTTTTTTTTTTTTTTTTTTTTTT…TC
Conditions: aptamer strand: ATP DNA aptamer (quencher-CACCTGGGGGAGTATTGCGGAGGAAGG + anchor), 100 nM annealed; ATP concentration: 500 uM
Method in brief: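 Exposure to 500 uM ATP lasted 15 min at 22 °C before imaging, and a selection-buffer image was taken beforehand, for Cy3-labelled switching-strand clusters on a modified Illumina MiSeq flow-cell annealed to 100 nM quencher-labelled ATP aptamer. Five buffer/ATP cycles were run with NaOH stripping and re-annealing between them. The fluorescence ratio per cluster is summed target-cycle over summed buffer-cycle Cy3 intensity, averaged per switch-domain sequence. Clusters outside 100-1000 RFU were excluded.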

Going from TTATTTTCGA to TTATTTTTA, the switch fluorescence ratio falls from 0.999 ± 0.021 to 0.9699 ± 0.0017.

TTATTTTTGA and TTATTTTTTG are within error of each other in switch fluorescence ratio: 1.07 ± 0.096 for the first, 1 ± 0.056 for the second.

TTCAAAAAGT and TTCAAAATTA are the same in switch fluorescence ratio: 0.991 ± 0.021 for the first, 0.9913 ± 0.0096 for the second.

First: TTCAAAGGGT
Second: TTCAACATTT
The switch fluorescence ratio of the first is lower: 1.005 ± 0.0049 for the first, 1.04 ± 0.011 for the second.

TTCAACGGGG and TTCAACTTTT are within error of each other in switch fluorescence ratio: 0.9948 ± 0.0039 for the first, 1.01 ± 0.056 for the second.

TTCAAGGGGA and TTCAAGGTA are within error of each other in switch fluorescence ratio: 1.06 ± 0.13 for the first, 1.01 ± 0.015 for the second.

TTCAATCATG and TTCAATGGTT are within error of each other in switch fluorescence ratio: 0.988 ± 0.011 for the first, 1.02 ± 0.035 for the second.

TTCAATTTAG and TTCAATTTTT are within error of each other in switch fluorescence ratio: 0.9954 ± 0.0042 for the first, 0.997 ± 0.021 for the second.

First: TTCACAGCCA
Second: TTCACATTTT
The switch fluorescence ratio of the first is higher: 1.09 ± 0.043 for the first, 0.9961 ± 0.0026 for the second.

TTCACCGGGA and TTCACTAGTG are within error of each other in switch fluorescence ratio: 0.9932 ± 0.007 for the first, 1.02 ± 0.035 for the second.

Going from TTCACTGATG to TTCACTGGGA, the switch fluorescence ratio falls from 1.05 ± 0.017 to 0.9962 ± 0.00098.

First: TTCACTGGTC
Second: TTCACTTAGC
The switch fluorescence ratio of the first is lower: 1.019 ± 0.0011 for the first, 1.075 ± 0.0076 for the second.

TTCAGAAAGG and TTCAGAAGTC are within error of each other in switch fluorescence ratio: 1 ± 0.023 for the first, 1.01 ± 0.056 for the second.

TTCAGACCGT and TTCAGAGGGG are within error of each other in switch fluorescence ratio: 1.016 ± 0.0064 for the first, 0.997 ± 0.033 for the second.

Going from TTCAGAGTCA to TTCAGCAATT, the switch fluorescence ratio rises from 0.985 ± 0.042 to 1.57 ± 0.31.

TTCAGCGCGC and TTCAGCGGGT are within error of each other in switch fluorescence ratio: 1.007 ± 0.0075 for the first, 0.983 ± 0.025 for the second.

Compared with TTCAGCTGGG, TTCAGGATAC is higher in switch fluorescence ratio: 0.998 ± 0.022 for the first, 1.19 ± 0.043 for the second.

TTCAGGATGT and TTCAGGATTT are within error of each other in switch fluorescence ratio: 1 ± 0.025 for the first, 0.994 ± 0.038 for the second.

TTCAGGCACG and TTCAGGGAGG are within error of each other in switch fluorescence ratio: 0.986 ± 0.049 for the first, 1 ± 0.033 for the second.

TTCAGGGGGT and TTCAGGGTTC are within error of each other in switch fluorescence ratio: 1.02 ± 0.054 for the first, 0.966 ± 0.027 for the second.

TTCAGTGTTT and TTCATAGGGG are within error of each other in switch fluorescence ratio: 0.993 ± 0.023 for the first, 0.988 ± 0.015 for the second.

First: TTCATAGGTT
Second: TTCATAGTGA
The switch fluorescence ratio of the first is higher: 1.02 ± 0.012 for the first, 0.95 ± 0.028 for the second.

TTCATATTCA and TTCATCGGCT are within error of each other in switch fluorescence ratio: 1.01 ± 0.023 for the first, 1.34 ± 0.51 for the second.

TTCATCGGTT and TTCATGTCAT are within error of each other in switch fluorescence ratio: 0.9922 ± 0.0022 for the first, 1.01 ± 0.081 for the second.

TTCATTCATT and TTCATTGTCG are within error of each other in switch fluorescence ratio: 0.982 ± 0.015 for the first, 0.929 ± 0.062 for the second.

TTCATTGTTA and TTCATTTTG are within error of each other in switch fluorescence ratio: 1.03 ± 0.049 for the first, 1.01 ± 0.068 for the second.

TTCCAAACGG and TTCCAAATTG are within error of each other in switch fluorescence ratio: 0.989 ± 0.014 for the first, 0.993 ± 0.017 for the second.

TTCCAAGATC and TTCCAAGGGT are within error of each other in switch fluorescence ratio: 1.18 ± 0.12 for the first, 1.76 ± 1.5 for the second.

TTCCAATTTG and TTCCACATTT are within error of each other in switch fluorescence ratio: 1 ± 0.014 for the first, 1.12 ± 0.16 for the second.

TTCCACGACT and TTCCAGCGGT are within error of each other in switch fluorescence ratio: 1.02 ± 0.025 for the first, 1.03 ± 0.017 for the second.

TTCCAGCTTT and TTCCAGGAGC are within error of each other in switch fluorescence ratio: 1.02 ± 0.024 for the first, 0.946 ± 0.091 for the second.

Going from TTCCAGGCGT to TTCCAGTATT, the switch fluorescence ratio falls from 1.23 ± 0.055 to 1.05 ± 0.049.

TTCCATATCG and TTCCATATTT are within error of each other in switch fluorescence ratio: 1.03 ± 0.061 for the first, 1.02 ± 0.026 for the second.

TTCCATGGTC and TTCCATGTGT are within error of each other in switch fluorescence ratio: 1.02 ± 0.014 for the first, 1.06 ± 0.044 for the second.

TTCCATGTTT and TTCCATTTGC are within error of each other in switch fluorescence ratio: 1.06 ± 0.11 for the first, 1.05 ± 0.074 for the second.

TTCCCACCGT and TTCCGACGAT are within error of each other in switch fluorescence ratio: 1.06 ± 0.031 for the first, 3.15 ± 2.3 for the second.

TTCCGGATTA and TTCCGGCAAA are within error of each other in switch fluorescence ratio: 1.07 ± 0.065 for the first, 1.5 ± 0.7 for the second.

TTCCGGCTTT and TTCCGGGCCG are within error of each other in switch fluorescence ratio: 1.01 ± 0.033 for the first, 1.03 ± 0.037 for the second.

TTCCGGGCTT and TTCCGGGGGC are within error of each other in switch fluorescence ratio: 1.41 ± 0.38 for the first, 1.61 ± 0.98 for the second.

First: TTCCGGGTAC
Second: TTCCGGTAAC
The switch fluorescence ratio of the first is higher: 3.27 ± 0.22 for the first, 2.07 ± 0.13 for the second.

TTCCGGTGAA and TTCCGTGGGA are the same in switch fluorescence ratio: 1.0572 ± 0.00078 for the first, 1.06 ± 0.045 for the second.

TTCCGTTTTT and TTCCTATGTT are within error of each other in switch fluorescence ratio: 1.51 ± 0.66 for the first, 0.991 ± 0.056 for the second.

TTCCTCAGAC and TTCCTGAAAA are within error of each other in switch fluorescence ratio: 1.6 ± 0.87 for the first, 0.981 ± 0.016 for the second.

TTCCTGCGCT and TTCCTGGTGG are within error of each other in switch fluorescence ratio: 1.77 ± 1 for the first, 1.05 ± 0.073 for the second.

TTCCTGTTTC and TTCCTTCATT are within error of each other in switch fluorescence ratio: 1.01 ± 0.023 for the first, 1.04 ± 0.016 for the second.

Going from TTCCTTGTTA to TTCCTTTGGG, the switch fluorescence ratio falls from 0.9973 ± 0.0052 to 0.964 ± 0.019.

TTCGAAGGGC and TTCGAGAAGG are within error of each other in switch fluorescence ratio: 1.14 ± 0.16 for the first, 0.972 ± 0.018 for the second.

Going from TTCGAGGTGC to TTCGAGTCGG, the switch fluorescence ratio falls from 1.04 ± 0.05 to 0.967 ± 0.011.

TTCGAGTTTT and TTCGATATTT are within error of each other in switch fluorescence ratio: 0.9669 ± 0.00099 for the first, 0.982 ± 0.017 for the second.

TTCGATGATA and TTCGATGGGG are within error of each other in switch fluorescence ratio: 1.07 ± 0.08 for the first, 0.993 ± 0.048 for the second.
